Results reported in US20140087995A1 (published 2014).
Numbered stars: 1 amine (or outer) side, 2 acyl side, 3 side chain; on linkers, the order of the positions; unused ones are H or OH. Bridge positions count the residues as written; N and C are the ends. Square brackets hold non-standard residues; d marks the D form. Side chains are listed from the residue outwards. Ends that are not written are not given here. * marks the point of attachment. C20 diacid = O=C(O)CCCCCCCCCCCCCCCCCCC(=O)*; γGlu = O=C(O)[C@H](CCC(=O)[*:2])N[*:1]

T1: human calcitonin receptor (human, UniProt P30988 25-474)
T1 construct: whole, on cells; also called hCTR; hCT
T1 sequence (looked up): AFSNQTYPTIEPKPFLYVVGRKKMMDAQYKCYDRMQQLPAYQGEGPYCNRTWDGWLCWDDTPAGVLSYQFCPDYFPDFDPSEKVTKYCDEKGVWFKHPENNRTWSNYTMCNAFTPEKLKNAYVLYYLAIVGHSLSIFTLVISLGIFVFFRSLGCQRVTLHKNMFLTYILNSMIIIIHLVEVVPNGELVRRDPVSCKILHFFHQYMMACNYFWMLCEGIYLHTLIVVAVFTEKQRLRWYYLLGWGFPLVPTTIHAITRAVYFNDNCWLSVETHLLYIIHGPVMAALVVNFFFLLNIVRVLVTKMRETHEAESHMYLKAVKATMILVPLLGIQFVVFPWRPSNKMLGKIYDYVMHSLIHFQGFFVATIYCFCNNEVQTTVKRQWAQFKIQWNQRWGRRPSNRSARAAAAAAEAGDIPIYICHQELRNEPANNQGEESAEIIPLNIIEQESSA


How the values were obtained:
[1] = molecular target: T1, human calcitonin receptor; assay: ratio of IC50 at human calcitonin receptor to IC50 at human amylin receptor (SPA competition assays)
Procedure, shortened: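 Competition binding by SPA uses membrane preparations (35 ng/μL final) in pH 7.4 Hepes buffer with 1 mM CaCl2 and 5 mM MgCl₂. Incubation lasts 120 min at 25° C, and IC₅₀ comes from one-site fitting.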

[2] = molecular target: T1, human calcitonin receptor; assay: SPA competition against 125I-calcitonin, membranes of BHK cells with human calcitonin receptor (Assay VII)
Procedure, shortened: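 BHK hCTR membranes 35 ng/μL + SPA beads 0.05 mg/well; buffer 50 mM Hepes pH 7.4, 1 mM CaCl2, 5 mM MgCl₂, 0.1% OA, 0.02% Tween20. 120 min, 25° C., shaking. Scintillation count; IC50 by one-site binding competition.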

Binder	Ratio hCT/hAmylin binding [1]	IC50 [2] [nM]
K([γGlu-C20 diacid])CNTATCATQRLAEFLRHSSPNFGAIPSSTNVGPRTY-NH2 (disulfide 2-7; N-terminus assumed; SMILES CC[C@H](C)[C@H](NC(=O)[C@H](C)NC(=O)CNC(=O)[C@H](Cc1ccccc1)NC(=O)[C@H](CC(N)=O)NC(=O)[C@@H]1CCCN1C(=O)[C@H](CO)NC(=O)[C@H](CO)NC(=O)[C@H](Cc1c[nH]cn1)NC(=O)[C@H](CCCNC(=N)N)NC(=O)[C@H](CC(C)C)NC(=O)[C@H](Cc1ccccc1)NC(=O)[C@H](CCC(=O)O)NC(=O)[C@H](C)NC(=O)[C@H](CC(C)C)NC(=O)[C@H](CCCNC(=N)N)NC(=O)[C@H](CCC(N)=O)NC(=O)[C@@H](NC(=O)[C@H](C)NC(=O)[C@@H]1CSSC[C@H](NC(=O)[C@@H](N)CCCCNC(=O)CC[C@H](NC(=O)CCCCCCCCCCCCCCCCCCC(=O)O)C(=O)O)C(=O)N[C@@H](CC(N)=O)C(=O)N[C@@H]([C@@H](C)O)C(=O)N[C@@H](C)C(=O)N[C@@H]([C@@H](C)O)C(=O)N1)[C@@H](C)O)C(=O)N1CCC[C@H]1C(=O)N[C@@H](CO)C(=O)N[C@@H](CO)C(=O)N[C@H](C(=O)N[C@@H](CC(N)=O)C(=O)N[C@H](C(=O)NCC(=O)N1CCC[C@H]1C(=O)N[C@@H](CCCNC(=N)N)C(=O)N[C@H](C(=O)N[C@@H](Cc1ccc(O)cc1)C(N)=O)[C@@H](C)O)C(C)C)[C@@H](C)O)	38.6	6.3
K([γGlu-γGlu-C20 diacid])CNTATCATQRLA[dD]FLRHSSPNFGAIPSSTNVGSRTY-NH2 (disulfide 2-7; N-terminus assumed; SMILES CC[C@H](C)[C@H](NC(=O)[C@H](C)NC(=O)CNC(=O)[C@H](Cc1ccccc1)NC(=O)[C@H](CC(N)=O)NC(=O)[C@@H]1CCCN1C(=O)[C@H](CO)NC(=O)[C@H](CO)NC(=O)[C@H](Cc1c[nH]cn1)NC(=O)[C@H](CCCNC(=N)N)NC(=O)[C@H](CC(C)C)NC(=O)[C@H](Cc1ccccc1)NC(=O)[C@@H](CC(=O)O)NC(=O)[C@H](C)NC(=O)[C@H](CC(C)C)NC(=O)[C@H](CCCNC(=N)N)NC(=O)[C@H](CCC(N)=O)NC(=O)[C@@H](NC(=O)[C@H](C)NC(=O)[C@@H]1CSSC[C@H](NC(=O)[C@@H](N)CCCCNC(=O)CC[C@H](NC(=O)CC[C@H](NC(=O)CCCCCCCCCCCCCCCCCCC(=O)O)C(=O)O)C(=O)O)C(=O)N[C@@H](CC(N)=O)C(=O)N[C@@H]([C@@H](C)O)C(=O)N[C@@H](C)C(=O)N[C@@H]([C@@H](C)O)C(=O)N1)[C@@H](C)O)C(=O)N1CCC[C@H]1C(=O)N[C@@H](CO)C(=O)N[C@@H](CO)C(=O)N[C@H](C(=O)N[C@@H](CC(N)=O)C(=O)N[C@H](C(=O)NCC(=O)N[C@@H](CO)C(=O)N[C@@H](CCCNC(=N)N)C(=O)N[C@H](C(=O)N[C@@H](Cc1ccc(O)cc1)C(N)=O)[C@@H](C)O)C(C)C)[C@@H](C)O)	–	112
K([γGlu-C20 diacid])CNTATCATQRLAEFLRHSSPNFGAIPSSTNVGPHTY-NH2 (disulfide 2-7)	21.2	3.8
K([γGlu-C20 diacid])CNTATCATQRLADFLRHSSPNFGAIPSSTNVGPRTY-NH2 (disulfide 2-7; N-terminus assumed; SMILES CC[C@H](C)[C@H](NC(=O)[C@H](C)NC(=O)CNC(=O)[C@H](Cc1ccccc1)NC(=O)[C@H](CC(N)=O)NC(=O)[C@@H]1CCCN1C(=O)[C@H](CO)NC(=O)[C@H](CO)NC(=O)[C@H](Cc1c[nH]cn1)NC(=O)[C@H](CCCNC(=N)N)NC(=O)[C@H](CC(C)C)NC(=O)[C@H](Cc1ccccc1)NC(=O)[C@H](CC(=O)O)NC(=O)[C@H](C)NC(=O)[C@H](CC(C)C)NC(=O)[C@H](CCCNC(=N)N)NC(=O)[C@H](CCC(N)=O)NC(=O)[C@@H](NC(=O)[C@H](C)NC(=O)[C@@H]1CSSC[C@H](NC(=O)[C@@H](N)CCCCNC(=O)CC[C@H](NC(=O)CCCCCCCCCCCCCCCCCCC(=O)O)C(=O)O)C(=O)N[C@@H](CC(N)=O)C(=O)N[C@@H]([C@@H](C)O)C(=O)N[C@@H](C)C(=O)N[C@@H]([C@@H](C)O)C(=O)N1)[C@@H](C)O)C(=O)N1CCC[C@H]1C(=O)N[C@@H](CO)C(=O)N[C@@H](CO)C(=O)N[C@H](C(=O)N[C@@H](CC(N)=O)C(=O)N[C@H](C(=O)NCC(=O)N1CCC[C@H]1C(=O)N[C@@H](CCCNC(=N)N)C(=O)N[C@H](C(=O)N[C@@H](Cc1ccc(O)cc1)C(N)=O)[C@@H](C)O)C(C)C)[C@@H](C)O)	151	42.5
K([γGlu-C20 diacid])CNTATCATQRLAEFLRHSSPNFGAIPSSTNVGSHTY-NH2 (disulfide 2-7; N-terminus assumed; SMILES CC[C@H](C)[C@H](NC(=O)[C@H](C)NC(=O)CNC(=O)[C@H](Cc1ccccc1)NC(=O)[C@H](CC(N)=O)NC(=O)[C@@H]1CCCN1C(=O)[C@H](CO)NC(=O)[C@H](CO)NC(=O)[C@H](Cc1c[nH]cn1)NC(=O)[C@H](CCCNC(=N)N)NC(=O)[C@H](CC(C)C)NC(=O)[C@H](Cc1ccccc1)NC(=O)[C@H](CCC(=O)O)NC(=O)[C@H](C)NC(=O)[C@H](CC(C)C)NC(=O)[C@H](CCCNC(=N)N)NC(=O)[C@H](CCC(N)=O)NC(=O)[C@@H](NC(=O)[C@H](C)NC(=O)[C@@H]1CSSC[C@H](NC(=O)[C@@H](N)CCCCNC(=O)CC[C@H](NC(=O)CCCCCCCCCCCCCCCCCCC(=O)O)C(=O)O)C(=O)N[C@@H](CC(N)=O)C(=O)N[C@@H]([C@@H](C)O)C(=O)N[C@@H](C)C(=O)N[C@@H]([C@@H](C)O)C(=O)N1)[C@@H](C)O)C(=O)N1CCC[C@H]1C(=O)N[C@@H](CO)C(=O)N[C@@H](CO)C(=O)N[C@H](C(=O)N[C@@H](CC(N)=O)C(=O)N[C@H](C(=O)NCC(=O)N[C@@H](CO)C(=O)N[C@@H](Cc1c[nH]cn1)C(=O)N[C@H](C(=O)N[C@@H](Cc1ccc(O)cc1)C(N)=O)[C@@H](C)O)C(C)C)[C@@H](C)O)	26.4	26.1

The next binders have a lower IC50 [2] than those just listed; values first:

Ratio hCT/hAmylin binding [1]	IC50 [2] [nM]	Binder
16.7	3.27	K([γGlu-C20 diacid])CNTATCATQRLADFLRHSSPNFGAIPSSTNVGPETY-NH2 (disulfide 2-7; N-terminus assumed; SMILES CC[C@H](C)[C@H](NC(=O)[C@H](C)NC(=O)CNC(=O)[C@H](Cc1ccccc1)NC(=O)[C@H](CC(N)=O)NC(=O)[C@@H]1CCCN1C(=O)[C@H](CO)NC(=O)[C@H](CO)NC(=O)[C@H](Cc1c[nH]cn1)NC(=O)[C@H](CCCNC(=N)N)NC(=O)[C@H](CC(C)C)NC(=O)[C@H](Cc1ccccc1)NC(=O)[C@H](CC(=O)O)NC(=O)[C@H](C)NC(=O)[C@H](CC(C)C)NC(=O)[C@H](CCCNC(=N)N)NC(=O)[C@H](CCC(N)=O)NC(=O)[C@@H](NC(=O)[C@H](C)NC(=O)[C@@H]1CSSC[C@H](NC(=O)[C@@H](N)CCCCNC(=O)CC[C@H](NC(=O)CCCCCCCCCCCCCCCCCCC(=O)O)C(=O)O)C(=O)N[C@@H](CC(N)=O)C(=O)N[C@@H]([C@@H](C)O)C(=O)N[C@@H](C)C(=O)N[C@@H]([C@@H](C)O)C(=O)N1)[C@@H](C)O)C(=O)N1CCC[C@H]1C(=O)N[C@@H](CO)C(=O)N[C@@H](CO)C(=O)N[C@H](C(=O)N[C@@H](CC(N)=O)C(=O)N[C@H](C(=O)NCC(=O)N1CCC[C@H]1C(=O)N[C@@H](CCC(=O)O)C(=O)N[C@H](C(=O)N[C@@H](Cc1ccc(O)cc1)C(N)=O)[C@@H](C)O)C(C)C)[C@@H](C)O)
24.8	2.04	K([γGlu-C20 diacid])CNTATCATQRLAHFLRHSSPNFGAIPSSTPVGPNTY-NH2 (disulfide 2-7; N-terminus assumed; SMILES CC[C@H](C)[C@H](NC(=O)[C@H](C)NC(=O)CNC(=O)[C@H](Cc1ccccc1)NC(=O)[C@H](CC(N)=O)NC(=O)[C@@H]1CCCN1C(=O)[C@H](CO)NC(=O)[C@H](CO)NC(=O)[C@H](Cc1c[nH]cn1)NC(=O)[C@H](CCCNC(=N)N)NC(=O)[C@H](CC(C)C)NC(=O)[C@H](Cc1ccccc1)NC(=O)[C@H](Cc1c[nH]cn1)NC(=O)[C@H](C)NC(=O)[C@H](CC(C)C)NC(=O)[C@H](CCCNC(=N)N)NC(=O)[C@H](CCC(N)=O)NC(=O)[C@@H](NC(=O)[C@H](C)NC(=O)[C@@H]1CSSC[C@H](NC(=O)[C@@H](N)CCCCNC(=O)CC[C@H](NC(=O)CCCCCCCCCCCCCCCCCCC(=O)O)C(=O)O)C(=O)N[C@@H](CC(N)=O)C(=O)N[C@@H]([C@@H](C)O)C(=O)N[C@@H](C)C(=O)N[C@@H]([C@@H](C)O)C(=O)N1)[C@@H](C)O)C(=O)N1CCC[C@H]1C(=O)N[C@@H](CO)C(=O)N[C@@H](CO)C(=O)N[C@H](C(=O)N1CCC[C@H]1C(=O)N[C@H](C(=O)NCC(=O)N1CCC[C@H]1C(=O)N[C@@H](CC(N)=O)C(=O)N[C@H](C(=O)N[C@@H](Cc1ccc(O)cc1)C(N)=O)[C@@H](C)O)C(C)C)[C@@H](C)O)
